Molecular target: T1, human prostate specific membrane antigen (PSMA) (human, UniProt Q04609 1-750)
T1 construct: PSMA was on the cell surface: LNCaP and 22Rv1 (endogenous), PC3-PSMA and Jurkat-PSMA (lentiviral transduction); also called hPSMA
Assay: flow cytometry of phage scFv clones after cell panning on Jurkat-PSMA (parental Jurkat as negative selection)
Text: A collection of human scFv antibody phage display libraries (diversity=10×10¹⁰) constructed by Eureka Therapeutics (i.e., the E-ALPHA® phage display library) was used for the selection of human mAbs specific to PSMA. Specifically, the E-ALPHA® phage display library was used to pan against a Jurkat cell line that has been engineered to express PSMA. The parental Jurkat cell line was used for negative selection. […] The VL in each scFv is underlined, the VH in each scFv is double underlined, and the linker is in bold italic type. The CDRs are in underlined bold type and double underlined bold type.

T1 sequence (Q04609 whole entry): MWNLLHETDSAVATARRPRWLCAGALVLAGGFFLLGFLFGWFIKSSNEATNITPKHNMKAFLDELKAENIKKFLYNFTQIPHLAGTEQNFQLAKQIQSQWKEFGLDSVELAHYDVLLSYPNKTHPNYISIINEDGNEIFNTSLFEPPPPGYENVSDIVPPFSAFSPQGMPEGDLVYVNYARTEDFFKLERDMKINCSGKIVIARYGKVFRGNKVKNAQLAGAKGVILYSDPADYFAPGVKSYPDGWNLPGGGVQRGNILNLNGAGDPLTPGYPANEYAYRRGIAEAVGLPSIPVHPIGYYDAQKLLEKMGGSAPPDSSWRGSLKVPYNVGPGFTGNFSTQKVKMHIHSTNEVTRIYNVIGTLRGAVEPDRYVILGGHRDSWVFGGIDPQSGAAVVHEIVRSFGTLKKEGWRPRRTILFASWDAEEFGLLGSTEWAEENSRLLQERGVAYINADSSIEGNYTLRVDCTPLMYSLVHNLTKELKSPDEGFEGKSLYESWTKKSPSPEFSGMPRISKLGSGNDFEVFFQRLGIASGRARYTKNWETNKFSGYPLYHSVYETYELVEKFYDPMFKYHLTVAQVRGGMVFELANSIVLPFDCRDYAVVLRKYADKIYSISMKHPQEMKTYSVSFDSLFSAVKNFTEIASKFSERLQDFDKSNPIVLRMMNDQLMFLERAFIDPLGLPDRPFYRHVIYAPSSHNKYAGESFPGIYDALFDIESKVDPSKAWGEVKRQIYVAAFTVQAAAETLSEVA

B1: Clone A anti-PSMA scFv (scFv)
scFv: QSVLTQPPSVSGAPGQRVTISCTGSSSNIGAGYDVHWYQQLPGTAPKLLIYGNSNRPSGVPDRFSGSKSGTSASLAITGLQAEDEADYYCQSYDSSLSGYVFGTGTKVTVLGSRGGGGSGGGGSGGGGSLEMAEVQLVQSGAEVKKPGESLKISCKGSGYSFTSYWIGWVRQMPGKGLEWMGIIYPGDSDTRYSPSFQGQVTISADKSISTAYLQWSSLKASDTAMYYCARSMGSSLYASSDVWGQGTLVTVSS
notes: Human scFv (VL-linker-VH) isolated from the E-ALPHA phage display library; the phage coat fusion is not described; also called phage clone A
binding result: binds
